Measured values: US20210196796A1 (SYNTHEKINE, published 2021)

How the values were obtained:
[1] = molecular target: T1, orthogonal hCD122 receptor (hoRb), hCD122 with H133D and Y134F (human, UniProt P14784 27-550); assay: cell-based or functional assay
T1 sequence: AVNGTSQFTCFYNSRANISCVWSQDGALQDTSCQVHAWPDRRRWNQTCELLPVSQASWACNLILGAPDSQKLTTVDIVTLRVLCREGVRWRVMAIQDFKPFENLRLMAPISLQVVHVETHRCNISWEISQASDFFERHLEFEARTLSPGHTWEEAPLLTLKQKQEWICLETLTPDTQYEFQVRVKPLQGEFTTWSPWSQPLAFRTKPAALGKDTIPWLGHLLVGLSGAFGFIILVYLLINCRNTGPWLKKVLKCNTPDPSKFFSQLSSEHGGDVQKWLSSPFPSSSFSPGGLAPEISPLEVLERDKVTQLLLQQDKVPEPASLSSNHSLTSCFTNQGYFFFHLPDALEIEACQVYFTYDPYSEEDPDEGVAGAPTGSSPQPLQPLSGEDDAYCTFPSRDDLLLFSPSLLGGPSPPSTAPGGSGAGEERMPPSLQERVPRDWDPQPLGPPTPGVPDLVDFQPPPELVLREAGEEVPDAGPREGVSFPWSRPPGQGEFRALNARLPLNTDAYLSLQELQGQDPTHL

[2] = molecular target: T1, orthogonal hCD122 receptor (hoRb), …; assay: cell-based or functional assay; remark: listed apart in the source
Throughout, for Relative Proliferation Fold Change 3F8 1:10: reference of the scale not given here.
Throughout, for Relative Proliferation Fold Change 3F8 1:2: reference of the scale not given here.
Throughout, for Relative Proliferation Fold Change 3F8 1:50: reference of the scale not given here.
Throughout, for Relative Proliferation Fold Change NKL 1:10: reference of the scale not given here.
Throughout, for Relative Proliferation Fold Change NKL 1:2: reference of the scale not given here.
Throughout, for Relative Proliferation Fold Change NKL 1:50: reference of the scale not given here.

| Binder | 3F8 Ortho Proliferation Signal 1:2 [1] [cts/min] | 3F8 Ortho Proliferation Signal 1:10 [1] [cts/min] | 3F8 Ortho Proliferation Signal 1:50 [1] [cts/min] | Relative Proliferation Fold Change 3F8 1:2 [1] [fold] | Relative Proliferation Fold Change 3F8 1:10 [1] [fold] | Relative Proliferation Fold Change 3F8 1:50 [1] [fold] | NKL Ortho Proliferation Signal 1:2 [2] | NKL Ortho Proliferation Signal 1:10 [2] | NKL Ortho Proliferation Signal 1:50 [2] | Relative Proliferation Fold Change NKL 1:2 [2] [fold] | Relative Proliferation Fold Change NKL 1:10 [2] [fold] | Relative Proliferation Fold Change NKL 1:50 [2] [fold] |
| --- | --- | --- | --- | --- | --- | --- | --- | --- | --- | --- | --- | --- |
| Q126K, SQVLKA (ligand) APTSSSTKKTQLQLSQLLVLLKAILNGINNYKNPKLTRMLTFKFYMPKKATELKHLQCLEEELKPLEEVLNLAQSKNFHLRPRDLISNINVIVLELKGSETTFMCEYADETATIVEFLNRWITFCKSIISTLT | 2720 | 2490 | 964 | 9.18 | 7.29 | 1.51 | 6510 | 7930 | 6980 | 0.54 | 0.56 | 0.53 |
| Q126G, SQVLKA (ligand) APTSSSTKKTQLQLSQLLVLLKAILNGINNYKNPKLTRMLTFKFYMPKKATELKHLQCLEEELKPLEEVLNLAQSKNFHLRPRDLISNINVIVLELKGSETTFMCEYADETATIVEFLNRWITFCGSIISTLT | 1540 | 1100 | 838 | 7.05 | 2.14 | 1.14 | 5740 | 7220 | 6050 | 0.45 | 0.49 | 0.45 |
| Q126R, SQVLKA (ligand) APTSSSTKKTQLQLSQLLVLLKAILNGINNYKNPKLTRMLTFKFYMPKKATELKHLQCLEEELKPLEEVLNLAQSKNFHLRPRDLISNINVIVLELKGSETTFMCEYADETATIVEFLNRWITFCRSIISTLT | 22400 | 18100 | 3710 | 0.49 | 1.44 | 1.37 | 13900 | 9670 | 6650 | 1.18 | 0.75 | 0.57 |
| Q126I, SQVLKA (ligand) APTSSSTKKTQLQLSQLLVLLKAILNGINNYKNPKLTRMLTFKFYMPKKATELKHLQCLEEELKPLEEVLNLAQSKNFHLRPRDLISNINVIVLELKGSETTFMCEYADETATIVEFLNRWITFCISIISTLT | 27400 | 27000 | 9510 | 30 | 11.3 | 8.69 | 40000 | 35600 | 16700 | 3.78 | 2.5 | 1.25 |
| Q126E, SQVLKA (ligand) APTSSSTKKTQLQLSQLLVLLKAILNGINNYKNPKLTRMLTFKFYMPKKATELKHLQCLEEELKPLEEVLNLAQSKNFHLRPRDLISNINVIVLELKGSETTFMCEYADETATIVEFLNRWITFCESIISTLT | 21000 | 14600 | 2660 | 129 | 33.6 | 6.4 | 10600 | 8600 | 6800 | 1.01 | 0.68 | 0.55 |
| Q126C, SQVLKA (ligand) APTSSSTKKTQLQLSQLLVLLKAILNGINNYKNPKLTRMLTFKFYMPKKATELKHLQCLEEELKPLEEVLNLAQSKNFHLRPRDLISNINVIVLELKGSETTFMCEYADETATIVEFLNRWITFCCSIISTLT | 452 | 574 | 748 | 2.28 | 0.68 | 1.4 | 6560 | 8210 | 7200 | 0.44 | 0.53 | 0.49 |
| L14W, SQVLKA (ligand) APTSSSTKKTQLQWSQLLVLLKAILNGINNYKNPKLTRMLTFKFYMPKKATELKHLQCLEEELKPLEEVLNLAQSKNFHLRPRDLISNINVIVLELKGSETTFMCEYADETATIVEFLNRWITFCQSIISTLT | 35300 | 36000 | 13600 | 66.2 | 31.8 | 16.5 | 50300 | 45100 | 20900 | 4.04 | 2.83 | 1.39 |
| Q126S, SQVLKA (ligand) APTSSSTKKTQLQLSQLLVLLKAILNGINNYKNPKLTRMLTFKFYMPKKATELKHLQCLEEELKPLEEVLNLAQSKNFHLRPRDLISNINVIVLELKGSETTFMCEYADETATIVEFLNRWITFCSSIISTLT | 9540 | 2870 | 826 | 19.3 | 3.69 | 1.6 | 9460 | 7880 | 6310 | 0.71 | 0.57 | 0.5 |
| Q126D, SQVLKA (ligand) APTSSSTKKTQLQLSQLLVLLKAILNGINNYKNPKLTRMLTFKFYMPKKATELKHLQCLEEELKPLEEVLNLAQSKNFHLRPRDLISNINVIVLELKGSETTFMCEYADETATIVEFLNRWITFCDSIISTLT | 294 | 368 | 544 | 0.63 | 0.4 | 0.61 | 4640 | 7560 | 6380 | 0.39 | 0.49 | 0.46 |
